The results in this text go back to US20260055205A1 (published 2026).

Positions count from the first letter of the chain named. Numbers in names are those of the source.

One assay addresses T1, human PSMA (human, UniProt Q04609 44-750, limits assumed).
T1 construct: also called huPSMA; hPSMA
In words: binding screen.

The next assay concerns the target T2, human CD3 epsilon (human, UniProt P07766 23-126, limits assumed).
T2 construct: also called huCD3e
In words: Octet, crude lysate. The text has this: To achieve this, Pool 1 was created, which included 74 paTCE molecules, each containing PSMA.5 and one of the 74 CD3.23 mutation variants. Single mutations were chosen based on analyses including CD3.23 PTE score analysis (using internal PTE algorithm v12) and structural analysis. Structural considerations included: possible contact disruption, anticipated steric clashes, side chain charge maintenance and possible pockets filling. Stability and affinity of the individually expressed molecules in the form of crude lysate was evaluated by Octet (ForteBio).

T2 sequence (P07766 23-126 limits assumed): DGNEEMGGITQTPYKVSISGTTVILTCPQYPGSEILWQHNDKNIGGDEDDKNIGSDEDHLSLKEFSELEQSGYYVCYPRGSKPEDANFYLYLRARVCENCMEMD
T1 sequence (Q04609 44-750 limits assumed): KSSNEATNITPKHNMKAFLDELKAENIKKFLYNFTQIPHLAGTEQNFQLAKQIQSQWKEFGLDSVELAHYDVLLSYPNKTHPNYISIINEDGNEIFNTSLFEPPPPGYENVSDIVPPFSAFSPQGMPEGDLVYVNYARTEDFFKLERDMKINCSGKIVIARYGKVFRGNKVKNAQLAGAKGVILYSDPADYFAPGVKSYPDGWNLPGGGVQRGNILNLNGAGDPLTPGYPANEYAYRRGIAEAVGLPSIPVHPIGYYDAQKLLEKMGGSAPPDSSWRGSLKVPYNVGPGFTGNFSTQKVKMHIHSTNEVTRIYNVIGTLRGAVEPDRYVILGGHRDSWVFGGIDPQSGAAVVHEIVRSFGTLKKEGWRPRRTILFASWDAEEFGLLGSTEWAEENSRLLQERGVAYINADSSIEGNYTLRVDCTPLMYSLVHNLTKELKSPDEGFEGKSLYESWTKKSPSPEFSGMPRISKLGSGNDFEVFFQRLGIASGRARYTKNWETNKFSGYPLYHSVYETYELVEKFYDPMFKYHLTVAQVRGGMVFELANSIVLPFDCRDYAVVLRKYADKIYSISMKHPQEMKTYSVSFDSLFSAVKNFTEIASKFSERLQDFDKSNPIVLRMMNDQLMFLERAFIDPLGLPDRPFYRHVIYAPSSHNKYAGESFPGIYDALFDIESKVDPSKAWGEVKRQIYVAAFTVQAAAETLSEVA

B1: PSMA.360 (bispecific antibody, V domains shown)
VH: QVQLVESGGGVVQPGRSLRLSCAASGRTFGIYVWGWFRQAPGKEREFVGAMSWSGSNRKVSDSVKGRFTISRDNSKNTLYLQMNSLRAEDTAVNYCAGSNKLYGRTWYDFNESDYWGQGTQVTVSS
notes: TCE with CD3.23; also called AC3762
For B1, the binding result in the assay with human PSMA was “no binding”.

B2: CD3.23-D (bispecific antibody, V domains shown)
VH: EVQLLESGGGIVQPGGSLKLSCAASGFTFNTYAMNWVRQAPGKGLEWVARIRSKYNNYATYYADSVKDRFTISRDDSKNTVYLQMNNLKTEDTAVYYCVRHENFGNSYVSWFAHWGQGTLVTVSS
VL: ELVVTQEPSLTVSPGGTVTLTCRSSNGAVTSSNYANWVQQKPGQAPRGLIGGTNKRAPGTPARFSGSLLGGKAALTLSGVQPEDEAVYYCALWYPNLWVFGGGTKLTVL
notes: paTCE with PSMA.5; also called AC3366; WT
As for B2, binding with human CD3 epsilon was characterised by a dissociation constant (Kd) of 14 nM.

B3: CD3.56 (bispecific antibody, V domains shown)
VH: B2 VH with I51T
VL: B2 VL
notes: paTCE with PSMA.5; also called AC3385; I51T
In the assay with human CD3 epsilon, B3 registered a Kd of 425 nM.

B4: CD3.38 (bispecific antibody, V domains shown)
VH: B2 VH with W47D
VL: B2 VL
notes: paTCE with PSMA.5; also called AC3367; W47D
For the molecule B4, the dissociation constant (Kd) with human CD3 epsilon amounted to 40.2 nM.

B5: CD3.40 (bispecific antibody, V domains shown)
VH: B2 VH with V48A
VL: B2 VL
notes: paTCE with PSMA.5; also called AC3369; V48A
Regarding B5, the Kd in the assay with human CD3 epsilon is 8.3 nM.

B6: CD3.74 (bispecific antibody, V domains shown)
VH: B2 VH with Y55T
VL: B2 VL
notes: paTCE with PSMA.5; also called AC3403; Y52cT
Turning to B6, the Kd with human CD3 epsilon stood at 11.1 nM.

B7: CD3.92 (bispecific antibody, V domains shown)
VH: B2 VH with Y62W
VL: B2 VL
notes: paTCE with PSMA.5; also called AC3421; Y59W
Turning to B7, the Kd in the assay with human CD3 epsilon was 37.2 nM.

B8: CD3.41 (bispecific antibody, V domains shown)
VH: B2 VH with V48E
VL: B2 VL
notes: paTCE with PSMA.5; also called AC3370; V48E
As to B8, the Kd with human CD3 epsilon worked out at 165 nM.

B9: CD3.60 (bispecific antibody, V domains shown)
VH: B2 VH with R52Q
VL: B2 VL
notes: paTCE with PSMA.5; also called AC3389; R52Q
The molecule B9 came in with a Kd in the assay with human CD3 epsilon of 434 nM.

B10: CD3.95 (bispecific antibody, V domains shown)
VH: B2 VH with D68G
VL: B2 VL
notes: paTCE with PSMA.5; also called AC3424; D65G
As for B10, the Kd with human CD3 epsilon turned out to be 5.4 nM.

B11: CD3.68 (bispecific antibody, V domains shown)
VH: B2 VH with K54P
VL: B2 VL
notes: paTCE with PSMA.5; also called AC3397; K52bP
In turn, B11 had a Kd with human CD3 epsilon of 51 nM.

B12: CD3.80 (bispecific antibody, V domains shown)
VH: B2 VH with Y58G
VL: B2 VL
notes: paTCE with PSMA.5; also called AC3409; Y55G
Consider B12, for which, in the assay with human CD3 epsilon, the Kd is 11.3 nM.

B13: CD3.75 (bispecific antibody, V domains shown)
VH: B2 VH with Y55W
VL: B2 VL
notes: paTCE with PSMA.5; also called AC3404; Y52cW
Take B13: the dissociation constant Kd with human CD3 epsilon worked out at 10.5 nM.

B14: CD3.83 (bispecific antibody, V domains shown)
VH: B2 VH with A59G
VL: B2 VL
notes: paTCE with PSMA.5; also called AC3412; A56G
Consider B14, for which the Kd with human CD3 epsilon worked out at 8.2 nM. The Kd values of the last two molecules are within 1.5-fold of each other.

B15: CD3.69 (bispecific antibody, V domains shown)
VH: B2 VH with Y55A
VL: B2 VL
notes: paTCE with PSMA.5; also called AC3398; Y52cA
In turn, B15 registered a Kd with human CD3 epsilon of 11.5 nM.

B16: CD3.81 (bispecific antibody, V domains shown)
VH: B2 VH with Y58F
VL: B2 VL
notes: paTCE with PSMA.5; also called AC3410; Y55F
In the assay with human CD3 epsilon, B16 had a Kd of 6.1 nM.

B17: CD3.90 (bispecific antibody, V domains shown)
VH: B2 VH with Y62Q
VL: B2 VL
notes: paTCE with PSMA.5; also called AC3419; Y59Q
The molecule B17 displayed a Kd in the assay with human CD3 epsilon of 7.2 nM.

B18: CD3.78 (bispecific antibody, V domains shown)
VH: B2 VH with N57D
VL: B2 VL
notes: paTCE with PSMA.5; also called AC3407; N54D
B18: the Kd with human CD3 epsilon is 7.4 nM.

B19: CD3.84 (bispecific antibody, V domains shown)
VH: B2 VH with A59T
VL: B2 VL
notes: paTCE with PSMA.5; also called AC3413; A56T
Turning to B19, the dissociation constant (Kd) with human CD3 epsilon amounted to 10.7 nM.

B20: CD3.72 (bispecific antibody, V domains shown)
VH: B2 VH with Y55K
VL: B2 VL
notes: paTCE with PSMA.5; also called AC3401; Y52cK
Molecule B20 had a Kd with human CD3 epsilon of 5.1 nM. This Kd is about 2.1-fold lower than that of the molecule before.

B21: CD3.42 (bispecific antibody, V domains shown)
VH: B2 VH with V48G
VL: B2 VL
notes: paTCE with PSMA.5; also called AC3371; V48G
In the assay with human CD3 epsilon, B21 came in with a Kd of 71.5 nM.

B22: CD3.77 (bispecific antibody, V domains shown)
VH: B2 VH with N56E
VL: B2 VL
notes: paTCE with PSMA.5; also called AC3406; N53E
As to B22, in the assay with human CD3 epsilon, binding was put at a Kd of 575 nM. Against the preceding molecule, the Kd is about 8-fold higher.

B23: CD3.48 (bispecific antibody, V domains shown)
VH: B2 VH with A49G
VL: B2 VL
notes: paTCE with PSMA.5; also called AC3377; A49G
In turn, B23 returned a dissociation constant Kd in the assay with human CD3 epsilon of 4.5 nM. This Kd lies about 130-fold lower than the previous one.

B24: CD3.39 (bispecific antibody, V domains shown)
VH: B2 VH with W47E
VL: B2 VL
notes: paTCE with PSMA.5; also called AC3368; W47E
Consider B24, for which, in the assay with human CD3 epsilon, the Kd was found to be 18.1 nM. This Kd lies about 4-fold higher than the previous one.

B25: CD3.85 (bispecific antibody, V domains shown)
VH: B2 VH with Y61D
VL: B2 VL
notes: paTCE with PSMA.5; also called AC3414; Y58D
Regarding B25, in the assay with human CD3 epsilon, the equilibrium dissociation constant (Kd) was 939 nM.

B26: CD3.87 (bispecific antibody, V domains shown)
VH: B2 VH with Y61T
VL: B2 VL
notes: paTCE with PSMA.5; also called AC3416; Y58T
For B26, in the assay with human CD3 epsilon, the Kd worked out at 17.9 nM. This Kd is about 52-fold lower than that of the molecule before.

B27: CD3.94 (bispecific antibody, V domains shown)
VH: B2 VH with A63P
VL: B2 VL
notes: paTCE with PSMA.5; also called AC3423; A60P
Take B27: the dissociation constant Kd with human CD3 epsilon turned out to be 8.2 nM.

B28: CD3.73 (bispecific antibody, V domains shown)
VH: B2 VH with Y55P
VL: B2 VL
notes: paTCE with PSMA.5; also called AC3402; Y52cP
Molecule B28 displayed a dissociation constant (Kd) in the assay with human CD3 epsilon of 33.1 nM.

B29: CD3.96 (bispecific antibody, V domains shown)
VH: B2 VH with Y82D
VL: B2 VL
notes: paTCE with PSMA.5; also called AC3425; Y79D
In the assay with human CD3 epsilon, B29 returned a Kd of 9.8 nM. This Kd lies about 3.4-fold lower than the previous one.

B30: CD3.44 (bispecific antibody, V domains shown)
VH: B2 VH with V48T
VL: B2 VL
notes: paTCE with PSMA.5; also called AC3373; V48T
The molecule B30 returned an equilibrium dissociation constant (Kd) in the assay with human CD3 epsilon of 5.7 nM.

B31: CD3.67 (bispecific antibody, V domains shown)
VH: B2 VH with S53T
VL: B2 VL
notes: paTCE with PSMA.5; also called AC3396; S52aT
B31 showed a Kd with human CD3 epsilon of 4.8 nM.

B32: CD3.82 (bispecific antibody, V domains shown)
VH: B2 VH with Y58W
VL: B2 VL
notes: paTCE with PSMA.5; also called AC3411; Y55W
In the assay with human CD3 epsilon, B32 returned an equilibrium dissociation constant (Kd) of 7.8 nM.

B33: CD3.89 (bispecific antibody, V domains shown)
VH: B2 VH with Y62E
VL: B2 VL
notes: paTCE with PSMA.5; also called AC3418; Y59E
B33 displayed a Kd with human CD3 epsilon of 9.7 nM.

B34: CD3.79 (bispecific antibody, V domains shown)
VH: B2 VH with N57E
VL: B2 VL
notes: paTCE with PSMA.5; also called AC3408; N54E
B34 returned a Kd with human CD3 epsilon of 8.3 nM.

B35: CD3.54 (bispecific antibody, V domains shown)
VH: B2 VH with I51A
VL: B2 VL
notes: paTCE with PSMA.5; also called AC3383; I51A
B35 came in with a Kd with human CD3 epsilon of 1180 nM.

B36: CD3.45 (bispecific antibody, V domains shown)
VH: B2 VH with V48W
VL: B2 VL
notes: paTCE with PSMA.5; also called AC3374; V48W
For B36, in the assay with human CD3 epsilon, the Kd was determined as 34300 nM. Compared with the last molecule, the Kd is about 29-fold higher.

B37: CD3.86 (bispecific antibody, V domains shown)
VH: B2 VH with Y61E
VL: B2 VL
notes: paTCE with PSMA.5; also called AC3415; Y58E
The molecule B37 came in with a dissociation constant Kd with human CD3 epsilon of 183 nM. This Kd lies about 190-fold lower than the previous one.

B38: CD3.88 (bispecific antibody, V domains shown)
VH: B2 VH with Y62D
VL: B2 VL
notes: paTCE with PSMA.5; also called AC3417; Y59D
In the assay with human CD3 epsilon, B38 came in with a Kd of 63.2 nM.

B39: CD3.93 (bispecific antibody, V domains shown)
VH: B2 VH with A63K
VL: B2 VL
notes: paTCE with PSMA.5; also called AC3422; A60K
Take B39: the Kd with human CD3 epsilon is 8 nM.

B40: CD3.71 (bispecific antibody, V domains shown)
VH: B2 VH with Y55G
VL: B2 VL
notes: paTCE with PSMA.5; also called AC3400; Y52cG
B40 displayed a Kd with human CD3 epsilon of 20.1 nM. Compared with the last molecule, the Kd is about 2.5-fold higher.

B41: CD3.43 (bispecific antibody, V domains shown)
VH: B2 VH with V48S
VL: B2 VL
notes: paTCE with PSMA.5; also called AC3372; V48S
Regarding B41, the equilibrium dissociation constant (Kd) with human CD3 epsilon amounted to 11.2 nM.

B42: CD3.70 (bispecific antibody, V domains shown)
VH: B2 VH with Y55R
VL: B2 VL
notes: paTCE with PSMA.5; also called AC3399; Y52cR
As for B42, the Kd with human CD3 epsilon turned out to be 3.8 nM.

B43: CD3.91 (bispecific antibody, V domains shown)
VH: B2 VH with Y62G
VL: B2 VL
notes: paTCE with PSMA.5; also called AC3420; Y59G
For the molecule B43, the affinity with human CD3 epsilon, expressed as Kd, was 8.3 nM.

Usually Kd stands for the constant that tells how readily two partners part at equilibrium.
